# Reference: US12653863B2, “FGF21 compositions for treatment or prevention of neovascularization of the eye and methods therefor” (Children's Medical Center Corporation, priority 2017, dated 2026)
# B1: Native FGF21: native FGF21 (nFGF21), unmodified FGF21 with short half-life (protein, UniProt Q9NSA1 29-209, looked up)
# Fibroblast growth factor 21: HPIPDSSPLLQFGGQVRQRYLYTDDAQQTEAHLEIREDGTVGGAADQSPESLLQLKALKPGVIQILGVKTSRFLCQRPDGALYGSLHFDPEACSFRELLLEDGYNVYQSEAHGLPLHLPGNKSPHRDPAPRGPARFLPLPGLPPALPEPPGILAPQPPDVGSSDPLSMVGPSQGRSPSYAS
# Assays:
# HRMEC = HRMEC wound healing and cell viability assays; assay type: cell-based; settings: in vitro, FIG. 7C-7D
# 661W cells = assay: 661W photoreceptor cells with paraquat-induced oxidative stress; assay type: cell-based; settings: PQ-treated 661W, co-treatment with 500 ng/ml PF-05231023, perifosine 5 or 10 μM
# Protocol: Photoreceptors (661W) cell culture: Photoreceptor 661W cells were cultured at 37° Celsius, 5% CO2 in a humidified atmosphere in Dulbecco's modified Eagle's medium (DMEM, #1196502, Gibco) supplemented with 10% fetal bovine serum (#S12450, Atlanta Biologicals) and 1% antibiotic/antimycotic solution. An equal number of cells per well was plated on a 6-well dish. Oxidative stress was induced with 0.5 mM paraquat (PQ, Sigma, #856177) for 1 hour at 37° Celsius. The culture media were changed and the cells were treated with vehicle (PBS) or 500 ng/ml PF-05231023 for 24 hours. Cells were collected for protein and RNA.
# Real-time PCR: Retinas or 661W cells were lysed with QIAzol lysis reagent and incubated on ice for 15 minutes. 20% chloroform was added and incubated for 5 minutes at room temperature. […] Quantitative analysis of gene expression was generated using an Applied Biosystems 7300 Sequence Detection System with the SYBR Green Master mix kit and gene expression was calculated relative to Cyclophilin A ((5′-CAG ACG CCA CTG TCG CTT T-3′ (SEQ ID NO: 30); 5′-TGTCTTTGGAACTTTGTCTGCAA-3′(SEQ ID NO: 31)) (retinas) or β-actin ((5′-CGGTTCCGATGCCCTGAGGCTCTT-3′ (SEQ ID NO: 48), 5′-CGTCACACTTCATGATGGAATTGA-3′ (SEQ ID NO: 49)) (photoreceptor 661W cells) using the ΔΔCt method. Each sample was repeated in triplicate. […]
# [1] = tested on: mice having oxygen-induced retinopathy; assay: mouse oxygen-induced retinopathy (OIR), retinal whole mounts and retinal qPCR at P17; assay type: in vivo; settings: WT OIR mice, i.p. daily P12-P16, P17 retinal whole mounts, vs vehicle
# Protocol: Oxygen-induced retinopathy: mice were exposed to 75% oxygen from P7 to P12. The mice were then returned to room air until P17 (Connor et al., 2009; Smith et al., 1994). High oxygen led to vessel loss and the relative hypoxia induced neovascularization which reached to maximum at P17 (Smith et al., 1994). Both genders of mouse pups were used with body weight ranging from 5.5 to 7 grams (Connor et al., 2009). The mice were randomly assigned to either native FGF21 (5 mg/kg, twice per day) or long-acting FGF21 (1 mg/kg PF-05231023) or phosphate buffered saline (PBS). The mice were intraperitoneally injected daily from P12 to P16. For the intra-vitreal injection of PF-05231023 (0.5 μl 10 μg/μl stock per eye) was delivered using 10 μl syringe with 35G needle (World Precision Instruments, Inc.) at P12. The contralateral eye was injected with vehicle control. At P17, retinal neovascularization was quantified (Connor et al., 2009; Smith et al., 1994). […] Retinal neovascularization was quantified as previously reported (Connor et al., 2009). Percentages of neovascularization were calculated by comparing the number of pixels in the neovascular areas with the total number of pixels in the retina. n is the number of eyes quantified. […]
# [2] = tested on: hyperglycemic mouse neonates; assay: streptozotocin (STZ)-induced hyperglycemic ROP mouse model; assay type: in vivo
# Source text: Hyperglycemia is a recently described risk factor for retinopathy of prematurity (ROP) in premature infants. In streptozotocin (STZ)-induced hyperglycemic ROP mouse model, retinal vascular development was confirmed as delayed. Specifically, FGF21 deficiency delayed normal retinal vascular network formation and worsened hyperglycemic ROP in such mice. Native (nFGF21) and long-acting FGF21 (PF-05231023) treatment were both observed to have promoted retinal vessel growth in hyperglycemic ROP. The protection of FGF21 observed was also confirmed as dependent upon adiponectin (APN).
# [3] = Huang et al., 2013; cited from earlier work
molecule,measurement,setting,value
O=C(COc1ccc(C(=O)c2ccccc2)cc1)NC1CCN(Cc2ccccc2)CC1 [AdipoRon],"endothelial cell function (wound healing, viability)",HRMEC,inhibited endothelial cell function in vitro
CCCCCCCCCCCCCCCCCCOP(=O)([O-])OC1CC[N+](C)(C)CC1 [perifosine],induction of NRF2 expression by PF-05231023,661W cells,dose-dependently inhibited
B1,retinal neovascularization,[1],did not affect neovascularization
same,retinal vascular growth,[2],improved retinal vascular growth
same,half-life,[3],24 min
